Where two headings read alike, the source gives them in different places.
B1: ATP5O (recombinant) (domain or fragment, human, UniProt P48047 46-213, looked up)
chain: YSAASKQNKLEQVEKELLRVAQILKEPKVAASVLNPYVKRSIKVKSLNDITAKERFSPLTTNLINLLAENGRLSNTQGVVSAFSTMMSVHRGEVPCTVTSASPLEEATLSELKTVLKSFLSQGQVLKLEAKTDPSILGGMIVRIGEKYVDMSVKTKIQKLGRAMREIV
B2: ATP5O (endogenous, HeLa) (natural protein)
chain: FAKLVRPPVQVYGIEGRYATALYSAASKQNKLEQVEKELLRVAQILKEPKVAASVLNPYVKRSIKVKSLNDITAKERFSPLTTNLINLLAENGRLSNTQGVVSAFSTMMSVHRGEVPCTVTSASPLEEATLSELKTVLKSFLSQGQVLKLEAKTDPSILGGMIVRIGEKYVDMSVKTKIQKLGRAMREIV

Assays:
SIRT3-FLAG [1] = molecular target: T1, SIRT3-FLAG (human, UniProt Q9NTG7 118-399); assay: BLI
T1 sequence (looked up): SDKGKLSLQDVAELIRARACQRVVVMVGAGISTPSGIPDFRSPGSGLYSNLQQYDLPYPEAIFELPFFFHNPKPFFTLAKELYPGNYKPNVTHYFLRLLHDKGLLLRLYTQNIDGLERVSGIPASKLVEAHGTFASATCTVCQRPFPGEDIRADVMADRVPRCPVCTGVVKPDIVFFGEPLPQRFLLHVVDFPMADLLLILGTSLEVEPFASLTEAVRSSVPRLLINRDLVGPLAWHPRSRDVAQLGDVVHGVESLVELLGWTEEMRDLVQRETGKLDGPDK

SIRT3-FLAG [2] = molecular target: T1, SIRT3-FLAG; assay: BLI; remark: listed apart in the source
SIRT3-HA (HeLa) (human) = assay: proximity ligation

| Binder | Kd (SIRT3-FLAG [1]) | Kd (SIRT3-FLAG [2]) | PLA signals per cell (signals per cell) (SIRT3-HA (HeLa) (human)) | percent of cells with PLA signal (SIRT3-HA (HeLa) (human)) |
| --- | --- | --- | --- | --- |
| B1 | 100 nM | 400 nM |  |  |
| B2 |  |  | < 10 | 40% |

— paper PMC5134900 (Cell, 2016)
